Values of other authors, collected in paper PMC6934062.

Molecular target: TDP-43 NTD (Homo sapiens) (UniProt Q13148)

For TDP-43 NTD (from UniProt Q13148), the Kd is given as 70 µM.
